Laboratory results from patent US9212226B2, “Amino acid sequences directed against CXCR4 and other GPCRs and compounds comprising the same” (Ablynx N.V., priority 2008, dated 2015).
Entries after “also recorded” stand apart in the source; their conditions may differ. Marks after values point to notes of the source that are not given here.

B1: 238D4: Nanobody (VHH) raised against human CXCR4, SEQ ID NO: 239 (protein)
VHH: EVQLMESGGGLVQAGGSLRLSCAASGRTFNNYAMGWFRRAPGKEREFVAAITRSGVRSGVSAIYGDSVKDRFTISRDNAKNTLYLQMNSLKPEDTAVYTCAASAIGSGALRRFEYDYSGQGTQVTVSS
modifications: Nanobody, Nanobody constructs or fragments thereof
B2: 238D2: Nanobody (VHH) raised against human CXCR4, SEQ ID NO: 238 (protein)
VHH: EVQLVESGGGLVQTGGSLRLSCAASGFTFSSYAMSWVRQAPGKGLEWVSGIKSSGDSTRYAGSVKGRFTISRDNAKNMLYLQMYSLKPEDTAVYYCAKSRVSRTGLYTYDNRGQGTQVTVSS
modifications: Nanobody, Nanobody constructs or fragments thereof

How the values were obtained:
Format in all cases: cell-based
[1] = target: T1, β2-adrenoceptors (Homo sapiens, UniProt P07550); experiment: CRE/β-galactosidase reporter gene selectivity screen, endogenous β2-adrenoceptors of HEK293T cells; conditions: Nanobody 2.5 μM, salbutamol 100 nM, no forskolin
T1 construct: (or mock for the investigation of endogenously expressed β2 adrenoceptors); endogenous in cells; host or cells: HEK293T cells (mock-transfected)
Method: (§1) Data are shown as means±S.E.M. (n=2-3).
(§2) HEK293T cells were maintained at 37° C. in a humidified 5% CO2, 95% air atmosphere in Dulbecco's modified Eagle's medium (DMEM) containing 2 mM L-glutamine, 50 IU/ml penicillin, 50 μg/ml streptomycin, and 10% (v/v) fetal calf serum. Jurkat cells were cultured in a humidified 5% CO2, 95% air atmosphere in a 1:1 mixture of Dulbecco's modified Eagle's medium (DMEM) and Ham's F12 medium containing 2 mM L-glutamine, 50 IU/ml penicillin, 50 μg/ml streptomycin, and 10% (v/v) fetal calf serum. […] [^125 I]-Labelling— Radiolabeling of Nanobodies with ^125I was performed using the Iodo-gen method (Pierce, Rockford, Ill.) according to the manufacturer's protocol. ^125I-labeled Nanobodies was separated from free iodine (>99%) using a Sephadex G-25 gel filtration column (Amersham Biosciences, Piscataway, N.J.). […] Competition Binding Assays— Membranes from HEK293T cells transiently expressing CXCR3 or CXCR4 were prepared 48 h after transfection as follows. Cells were washed and scraped from the cell culture dishes with ice-cold PBS containing 1 mm EDTA. The scraped cells were pelleted at 1500×g for 10 min at 4° C. […] The total protein was determined using a Bradford assay (Bio-Rad). […] Plates were counted by liquid scintillation. […] The accumulated inositol phosphates were isolated by anion exchange chromatography and counted by liquid scintillation. […]

[2] = target: CXCR4 (Homo sapiens, UniProt P61073); experiment: CRE/β-galactosidase reporter gene assay in HEK293T cells expressing CXCR4; conditions: for Schild slope: log(CR-1) vs -log[Nanobody]
CXCR4, sequence (P61073 whole entry): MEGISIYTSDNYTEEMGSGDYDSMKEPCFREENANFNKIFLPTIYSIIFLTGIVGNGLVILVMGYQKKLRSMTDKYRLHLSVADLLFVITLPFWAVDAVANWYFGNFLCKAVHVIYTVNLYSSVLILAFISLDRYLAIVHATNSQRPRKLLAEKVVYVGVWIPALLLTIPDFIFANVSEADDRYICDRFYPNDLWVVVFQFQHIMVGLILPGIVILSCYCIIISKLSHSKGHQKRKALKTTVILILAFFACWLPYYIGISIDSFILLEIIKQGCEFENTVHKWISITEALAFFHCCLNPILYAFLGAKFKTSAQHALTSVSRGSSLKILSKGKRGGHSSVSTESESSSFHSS
Method: (§3) HEK293T cells were maintained at 37° C. in a humidified 5% CO2, 95% air atmosphere in Dulbecco's modified Eagle's medium (DMEM) containing 2 mM L-glutamine, 50 IU/ml penicillin, 50 μg/ml streptomycin, and 10% (v/v) fetal calf serum. Jurkat cells were cultured in a humidified 5% CO2, 95% air atmosphere in a 1:1 mixture of Dulbecco's modified Eagle's medium (DMEM) and Ham's F12 medium containing 2 mM L-glutamine, 50 IU/ml penicillin, 50 μg/ml streptomycin, and 10% (v/v) fetal calf serum. […] [^125 I]-Labelling— Radiolabeling of Nanobodies with ^125I was performed using the Iodo-gen method (Pierce, Rockford, Ill.) according to the manufacturer's protocol. ^125I-labeled Nanobodies was separated from free iodine (>99%) using a Sephadex G-25 gel filtration column (Amersham Biosciences, Piscataway, N.J.). […] Competition Binding Assays— Membranes from HEK293T cells transiently expressing CXCR3 or CXCR4 were prepared 48 h after transfection as follows. Cells were washed and scraped from the cell culture dishes with ice-cold PBS containing 1 mm EDTA. The scraped cells were pelleted at 1500×g for 10 min at 4° C. The pellet was washed and then resuspended in ice-cold membrane buffer (15 mM Tris, pH 7.5, 1 mM EGTA, 0.3 mM EDTA, and 2 mM MgCl2). The cell suspension was homogenized by 10 strokes at 1200 rpm using a Teflon-glass homogenizer and rotor and further subjected to three freeze-thaw cycles using liquid nitrogen. Membranes were separated by centrifugation at 40,000 g for 25 min at 4° C. The membrane pellet was washed and resuspended in ice-cold Tris-sucrose buffer (20 mM Tris, pH 7.4, and 250 mM sucrose) and frozen in liquid nitrogen. The total protein was determined using a Bradford assay (Bio-Rad). Periplasmas (1:10) or ligands were pre-incubated with membranes in binding buffer (50 mM HEPES (pH 7.4), 1 mM CaCl2, 5 mM MgCl2, 100 mM NaCl, 0.5% bovine serum albumin) supplemented with 0.5% BSA for 1 h at 22° C. before the addition of [^125I]-CXCL12 (40 pM) or [^125I]-238D2 (3 nM) or [^125I]-238D4 (3 nM) for additional 2 h at 22° C. […] Membranes were then harvested over polyethylenimine (0.5%)-treated Whatman GF/C filter plates and washed three times with ice cold binding buffer containing 500 mM NaCl. Plates were counted by liquid scintillation. Inositol Phosphate Accumulation Assay— 24 hours post transfection with pcDNA3.1-CXCR4 and pcDNA1-HA-mG {alpha} qi5 (see Verzijl et al, 2008 supra), 250.000 cells were seeded into 24-wells plates and labelled overnight using inositol-free minimal essential medium supplemented with 1 μCi myo-[2-^3H]-inositol. The next day, the cells were washed once to remove not incorporated myo-[2-^3H]-inositol. […] In agonist experiments, the cells were directly stimulated with test compounds and LiCl (10 mM) in assay buffer for 2 h at 37° C. The stimulation was stopped by aspirating the stimulation medium and adding ice-cold 10 mM formic acid. The accumulated inositol phosphates were isolated by anion exchange chromatography and counted by liquid scintillation. CRE Reporter Gene Assay— HEK239T cells were transfected with pCRE/β-galactosidase (Chen W, Shields T S, Stork P J S, Cone R D (1995) Anal Biochem 226:349-354) and plasmids (pcDEF3 or pcDNA3.1) encoding the indicated receptors. 40,000 transfected cells per well were seeded into 96 well plates and grown in DMEM supplemented with 10% fetal calf serum. The medium was replaced 32 h after transfection by serum-free DMEM supplemented with 0.5% bovine serum albumin and ligands as indicated. Following 16 h of ligand incubation, the medium was removed, the cells were lysed in 100 μl of assay buffer (100 mM sodium phosphate buffer at pH 8.0, 4 mM 2-nitrophenol-β-D-pyranoside, 0.5% Triton X-100, 2 mM MgSO4, 0.1 mM MnCl2, and 40 mM β-mercaptoethanol) and incubated at room temperature. […]

[3] = target: T2, CXCR2 (Homo sapiens, UniProt P25025); experiment: CRE/β-galactosidase reporter gene selectivity screen, CXCR2; conditions: up to 2.5, forskolin 3 μM, agonist at 50-80% Emax
T2 sequence (P25025 1-360): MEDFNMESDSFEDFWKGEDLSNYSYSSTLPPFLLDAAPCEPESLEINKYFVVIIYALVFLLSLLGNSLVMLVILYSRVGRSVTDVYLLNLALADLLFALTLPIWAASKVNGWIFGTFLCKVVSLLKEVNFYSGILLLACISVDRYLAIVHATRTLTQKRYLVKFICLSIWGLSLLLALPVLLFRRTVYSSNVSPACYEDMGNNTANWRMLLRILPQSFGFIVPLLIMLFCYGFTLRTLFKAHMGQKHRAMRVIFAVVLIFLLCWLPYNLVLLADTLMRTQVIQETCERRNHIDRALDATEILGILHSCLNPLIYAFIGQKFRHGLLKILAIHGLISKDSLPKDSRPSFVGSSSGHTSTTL
Method: as §1, §2

[4] = target: T3, CXCR3 (Homo sapiens, UniProt P49682); experiment: CRE/β-galactosidase reporter gene selectivity screen, CXCR3; conditions: up to 2.5, forskolin 3 μM, agonist at 50-80% Emax
T3 sequence (P49682 1-368): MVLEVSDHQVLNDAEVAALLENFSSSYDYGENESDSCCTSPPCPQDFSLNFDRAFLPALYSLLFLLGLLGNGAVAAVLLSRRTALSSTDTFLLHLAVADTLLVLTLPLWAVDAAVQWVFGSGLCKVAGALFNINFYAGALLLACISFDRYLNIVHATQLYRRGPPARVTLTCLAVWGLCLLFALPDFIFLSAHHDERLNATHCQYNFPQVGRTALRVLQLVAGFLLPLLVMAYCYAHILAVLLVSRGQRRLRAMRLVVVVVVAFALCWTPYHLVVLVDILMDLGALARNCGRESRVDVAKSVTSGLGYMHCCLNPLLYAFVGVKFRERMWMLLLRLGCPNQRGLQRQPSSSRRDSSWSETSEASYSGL
Method: as §1, §2

[5] = target: CXCR4 (N119A) (Homo sapiens, UniProt P61073, N119A); experiment: Basal inositol phosphate accumulation in HEK293T cells expressing CXCR4 (N119A); conditions: ligand-induced alteration of basal inositol phosphate accumulation
CXCR4 (N119A), sequence (P61073 whole entry N119A): as the sequence (P61073 whole entry) above, with N119A counted along it
Method: as §3, with “indicated.” for “indicated. Following 16 h of ligand incubation, the medium was removed, the cells were lysed in 100 μl of assay buffer (100 mM sodium phosphate buffer at pH 8.0, 4 mM 2-nitrophenol-β-D-pyranoside, 0.5% Triton X-100, 2 mM MgSO4, 0.1 mM MnCl2, and 40 mM β-mercaptoethanol) and incubated at room temperature.”

[6] = HEK293T-CXCR4-CREbgal/0.01-100 nM CXCL12, mean ± S.E.M.

Molecule | effect on activation of endogenous β2-adrenoceptors by salbutamol [1] | agonist activity in the absence of CXCL12, CRE reporter [2] | mode of antagonism of the CXCL12-induced activation of signal transduction [2] | Imax (%), CRE activation [2, 6] | Schild slope [2] | effect on agonist-induced response at CXCR2 [3] | effect on agonist-induced response at CXCR3 [4] | functional profile at CXCR4 (N119A) [5] | pKi or pIC50, CRE activation [2, 6] | pKB ([2]; from Schild plot data, CXCL12-induced reporter gene response)
B1 | do not act as agonists or antagonists; also recorded: did not inhibit | No agonist activity; also recorded: did not show any agonist activity | competitive antagonism | 90 ± 15^a % | 0.71±0.17 | do not act as agonists or antagonists; also recorded: do not alter | do not act as agonists or antagonists; also recorded: do not alter | inverse antagonists; also recorded: partial inverse agonists |  | 
B2 | do not act as agonists or antagonists; also recorded: did not inhibit | No agonist activity; also recorded: did not show any agonist activity | competitive antagonism | 104 ± 5^a % | 0.91±0.20 | do not act as agonists or antagonists; also recorded: do not alter | do not act as agonists or antagonists; also recorded: do not alter | neutral antagonist; also recorded: Neither significant agonistic nor inverse antagonistic activity | 7.64 ± 0.16^b | 7.64±0.16
